Patent US20170015742A1 (published 2017)
Residue numbers refer to the chain shown, from its start. Values joined by “and” are separate entries in the source; they are usually repeats but may differ in a detail not shown here. Equal entries are not always repeated.

B1: BEW-10H2-B9 (antibody, IgG2b, V domains shown)
VH: QIQLVQSGPELKKPGESVKISCKASGYSFTNFGLYWVKQAPGQGLQYMGWIDTETGKPTYADDFRGRFVFFLETSASTAYLQINNLKNEDMATYFCARVYGYPSWYFDFWGPGTMVTVSS
VL: DIQMTQSPASLSTSLEEIVTITCQASQDIDNYLSWYQQKPGKSPQLLIHSATSLADGVPSRFSGSRSGTQFSLKIHRLQVEDTGIYYCLQHFFPPWTFGGGTKLELK
B2: BEW-1B4-C4 (antibody, IgG2b, V domains shown)
VH: QIQLVQSGPELKKPGESVKISCKASGYSFTNYGMYWVKQAPGQGLQYMGWIDTETGKPTYTDDFKGRFVFFLETSASTAYLQINNLKNEDMATYFCARWSGDTAGIRGPWFAYWGQGTLVTVSS
VL: DIRMTQSPASLSASLGETVNIECLASEDIYSDLAWYQQKPGKSPQLLIYNANDLQKGVPSRFSGSGSGTQYSLKINSLQSEDVATYFCQQYNYYPGTFGAGTKLELK
notes: Rat hybridoma monoclonal antibody
B3: BEW-9E10-E7 (antibody, IgG2a, V domains shown)
VH: B2 VH with V5L, S28T, K57R, T61A, A104T
VL: B2 VL with K42R, D53G, K56N, S63G, Y94F
B4: BEW-9D2-E8 (antibody, IgG2a, V domains shown)
VH: QIQLVQSGPELKKPGESVKISCKASGYTFTNYGMYWVKLAPGQGLQYLGWINTETGKPTYADDFKGRFVFFLETSASTAYLQINNLRNEDMATYFCARPSDYYDGFWFAYWGQGTLVTVSS
VL: DTVLTQSPALTVSPGERVSISCRASEWVNSYMHWYQQNPGQQPKLLIYKASNLASGVPARFSGSGSGTDFTLTLDPVEADDTATYFCQQSWNDPLTFGSGTKLEIK
B5: BEW-9E7-B4 (antibody, IgG2b, V domains shown)
VH: QIQLVQSGPELKKPGESVKISCKASGYTFTNYGMYWVKQAPGQGLQYMGWIDTETGKPTYADDFKGRFVFFLETSASTAYLQINNLRNEDMATYFCARWGYTSDYYYGWFPDWGQGTLVTVST
VL: B4 VL with T11A, W27G, T73N, L74I, D75H, S90N, D93V
B6: BEW-9E3-B9 (antibody, IgG2a, V domains shown)
VH: B4 VH with L39Q, L48M, Y80F, R87K, A109P, T115A
VL: B4 VL with V3I, T11A, V18I, W27G, L74I
B7: BEW-9C2-D6 (antibody, IgG2b, V domains shown)
VH: QIQLVQSGPELKKPGESVKVSCKASGYTFTNYGIHWVKQAPGQGLQYVGWINTETGRPTYADDFKGRFVFFLETSASTAYLQINNLKNEDMATYFCARPLYYGYAHYFDYWGQGVMVTVSS
VL: DIQMTQSPASLSASLEEIVTITCQASQDIGNWLAWYQQKPGKSPQLLIYGATSLADGVPSRFSGSRSGTQYSLKISRLQVEDIGIYYCQQASSVTYTFGAGTKLELK
B8: BDB-4G8-D4 (antibody, IgG2b, V domains shown)
VH: QIQLVQSGPELKKPGESVKISCKASGYTFTNYGMYWVKQAPGQGLQYMGWINTETGKPTYADDFKGRFVFFLETSASTAYLQINNLKNEDMATYFCARTNYYYRSYIFYFDYWGQGTMVTVSS
VL: DTVLTQSPALAVSPGERVSISCRASESVSTHMHWYQQKPGQQPKLLIYGASNLESGVPARFSGSGSGTDFTLTIDPVEADDTATYFCQQSWNDPFTFGAVTKLELK
B9: BED-4G10-C8 (antibody, IgG2b, V domains shown)
VH: QVQLQQSGTELVKPGSSVKISCKASGYTFTSNYMHWIRQQPGNGLEWIGWIYPGDGDTNYNHNFNGKATLTADKSSSTAYMQLSSLTSEDFAVYFCASSTRAIPGWFTYWGQGTLVTVSS
VL: B8 VL with R23W, H31L, P39L, S62R, N92S, F95Y, V100G

biological target: T1, Human VEGF-A 165 (human, UniProt P15692 207-395); assay: Biacore SPR (Example 1.1)
T1 construct: also called hVEGF165; huVEGF-A165
Method: Unreacted moieties on the biosensor surface were blocked with ethanolamine. For kinetic analysis, rate equations derived from the 1:1 Langmuir binding model were fitted simultaneously to multiple antigen injections (using global fit analysis) with the use of Scrubber 2 (BioLogic Software), Biacore Biaevaluation 4.0.1 software or Biacore T100 Evaluation software. Purified antibodies or DVD-Ig molecules were diluted in running buffer for capture across goat anti-human Fc reaction surfaces. Antibodies or DVD-Ig molecules to be captured as a ligand (1 μg/ml) were injected over reaction matrices at a flow rate of 10 μl/minute. During the assay, all measurements were referenced against the capture surface alone (i.e., with no captured antibody or DVD-Ig molecule). […] The equilibrium dissociation constant KD (M) of the reaction between antibodies and the target antigen was then calculated from the kinetic rate constants by the following formula: KD=Koff/Kₒₙ. Binding was recorded as a function of time and kinetic rate constants were calculated. In this assay, on-rates as fast as 10⁶M⁻¹s⁻¹ and off-rates as slow as 10⁻⁶ s⁻¹ could be measured. […]

T1 sequence (P15692 other isoform, or with tags, fused parts or gaps limits assumed): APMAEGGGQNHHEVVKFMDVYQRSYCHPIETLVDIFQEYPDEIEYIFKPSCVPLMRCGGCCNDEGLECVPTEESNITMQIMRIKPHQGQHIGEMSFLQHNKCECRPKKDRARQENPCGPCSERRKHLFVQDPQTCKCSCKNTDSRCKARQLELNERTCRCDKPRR

**Q.** B1 was tested. Which Kd did it give?
**A.** Its Kd is 11 pM.

**Q.** What about the kon of the same binder?
**A.** The kon was 2.4e+07 M⁻¹ s⁻¹.

**Q.** How did the Kd turn out when B2 was run?
**A.** The Kd was 7.4 pM.

**Q.** What about the kon of the same binder?
**A.** Its kon is 1.8e+07 M⁻¹ s⁻¹.

**Q.** Which results are given for B3?
**A.** Kd: 3.1 pM; kon: 1.3e+07 M⁻¹ s⁻¹

**Q.** With B4 as the binder, how does the Kd read?
**A.** The Kd was 14 pM.

**Q.** And the kon?
**A.** The kon was 7e+06 M⁻¹ s⁻¹.

**Q.** B5 was tested. Which Kd did it give?
**A.** The Kd was 4.3 pM.

**Q.** And the kon?
**A.** Its kon is 5.9e+06 M⁻¹ s⁻¹.

**Q.** Which Kd does the source give for B6 here?
**A.** The Kd was 14 pM.

**Q.** What about the kon of the same binder?
**A.** Its kon is 6.7e+06 M⁻¹ s⁻¹.

**Q.** What does the source list for B7?
**A.** Kd: ≤ 0.18 pM; kon: 5.5e+06 M⁻¹ s⁻¹

**Q.** Which results are given for B8?
**A.** Kd: ≤ 0.81 pM and 1.2 pM; kon: ≥ 1e+07 M⁻¹ s⁻¹ and 1.4e+07 M⁻¹ s⁻¹

**Q.** How did the Kd turn out when B9 was run?
**A.** The Kd was 60 pM.

**Q.** And the kon?
**A.** Its kon is 1.8e+07 M⁻¹ s⁻¹.
